This test concerns the target T1, human CD40 expressed on CHO cells (human, UniProt P25942 21-277).
T1 construct: whole, on cells; also used for the reporter cells over-expressing human CD40; also called cellular CD40; CHO-CD40 cells
As to the kind of experiment: FACS, CHO cells.

T1 sequence (P25942 21-277): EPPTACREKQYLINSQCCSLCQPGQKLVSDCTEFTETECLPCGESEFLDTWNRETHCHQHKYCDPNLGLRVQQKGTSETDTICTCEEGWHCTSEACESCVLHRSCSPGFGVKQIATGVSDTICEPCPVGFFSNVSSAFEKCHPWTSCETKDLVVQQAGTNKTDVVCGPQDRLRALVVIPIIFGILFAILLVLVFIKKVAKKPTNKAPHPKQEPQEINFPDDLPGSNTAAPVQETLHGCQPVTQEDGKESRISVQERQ

B1: Ly809 (bispecific antibody, human IgG1, kappa)
heavy: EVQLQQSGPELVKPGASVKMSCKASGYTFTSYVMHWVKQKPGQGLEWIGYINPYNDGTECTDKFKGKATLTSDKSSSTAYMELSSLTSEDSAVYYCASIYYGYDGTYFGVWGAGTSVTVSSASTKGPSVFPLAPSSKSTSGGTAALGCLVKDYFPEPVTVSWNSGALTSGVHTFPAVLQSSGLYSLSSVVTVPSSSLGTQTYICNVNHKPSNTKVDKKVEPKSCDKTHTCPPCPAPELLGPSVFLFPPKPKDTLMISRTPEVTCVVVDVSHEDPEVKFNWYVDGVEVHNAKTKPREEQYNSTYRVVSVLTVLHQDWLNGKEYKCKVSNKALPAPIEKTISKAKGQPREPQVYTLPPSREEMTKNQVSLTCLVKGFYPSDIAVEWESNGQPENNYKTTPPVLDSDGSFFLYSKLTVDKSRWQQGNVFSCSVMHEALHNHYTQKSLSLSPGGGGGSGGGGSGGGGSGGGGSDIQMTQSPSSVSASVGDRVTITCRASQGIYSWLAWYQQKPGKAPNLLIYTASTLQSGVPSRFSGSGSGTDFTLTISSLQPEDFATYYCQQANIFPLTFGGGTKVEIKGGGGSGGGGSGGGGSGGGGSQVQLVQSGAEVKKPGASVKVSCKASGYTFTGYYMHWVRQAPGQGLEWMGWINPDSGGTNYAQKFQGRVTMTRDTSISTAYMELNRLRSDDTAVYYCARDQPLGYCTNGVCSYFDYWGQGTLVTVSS
light: QIVLSQSPAILSTSPGEKVTMTCRASSSVSYMHWYQQKPGSSPKPWIYATSNLASGVPARFSGSRSGTSYSLTISRVEAEDAATYYCQQWSSNTLTFGGGTKLELKRTVAAPSVFIFPPSDEQLKSGTASVVCLLNNFYPREAKVQWKVDNALQSGNSQESVTEQDSKDSTYSLSSTLTLSKADYEKHKVYACEVTHQGLSSPVTKSFNRGEC
notes: Ly383 HC (IgG1 mutated Fc)-Ly253 scFv VL-VH + Ly383 LC
In the case of B1, the binding result is on record as “binds”.

B2: Ly810 (bispecific antibody, human IgG1, kappa)
heavy: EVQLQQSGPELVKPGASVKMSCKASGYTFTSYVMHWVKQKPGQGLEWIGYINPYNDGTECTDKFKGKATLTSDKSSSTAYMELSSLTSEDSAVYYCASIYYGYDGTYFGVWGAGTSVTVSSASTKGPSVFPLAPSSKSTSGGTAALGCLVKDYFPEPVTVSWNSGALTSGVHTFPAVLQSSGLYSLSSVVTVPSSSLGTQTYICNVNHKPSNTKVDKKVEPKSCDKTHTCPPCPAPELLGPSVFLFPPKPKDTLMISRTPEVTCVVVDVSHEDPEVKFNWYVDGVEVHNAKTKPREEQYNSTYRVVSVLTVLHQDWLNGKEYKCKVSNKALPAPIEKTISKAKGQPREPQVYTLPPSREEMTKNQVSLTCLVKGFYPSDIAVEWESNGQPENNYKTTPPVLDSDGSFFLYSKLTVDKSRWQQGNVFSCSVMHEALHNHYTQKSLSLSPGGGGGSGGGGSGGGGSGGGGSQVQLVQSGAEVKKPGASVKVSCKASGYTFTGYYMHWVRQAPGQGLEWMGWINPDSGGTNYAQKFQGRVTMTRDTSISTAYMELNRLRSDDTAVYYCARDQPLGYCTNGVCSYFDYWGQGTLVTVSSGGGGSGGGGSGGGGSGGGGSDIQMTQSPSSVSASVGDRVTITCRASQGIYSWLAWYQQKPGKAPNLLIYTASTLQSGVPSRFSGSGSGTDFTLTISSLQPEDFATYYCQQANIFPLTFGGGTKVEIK
light: B1 light
notes: Ly383 HC (IgG1 mutated Fc)-Ly253 scFv VH-VL + Ly383 LC
In the case of B2, the binding result was “binds”.

B3: Ly801 (bispecific antibody, human IgG1, kappa)
heavy: EVQLQQSGPELVKPGASVKMSCKASGYTFTSYVMHWVKQKPGQGLEWIGYINPYNDGTECTDKFKGKATLTSDKSSSTAYMELSSLTSEDSAVYYCASIYYGYDGTYFGVWGAGTSVTVSSASTKGPSVFPLAPSSKSTSGGTAALGCLVKDYFPEPVTVSWNSGALTSGVHTFPAVLQSSGLYSLSSVVTVPSSSLGTQTYICNVNHKPSNTKVDKKVEPKSCDKTHTCPPCPAPELLGPSVFLFPPKPKDTLMISRTPEVTCVVVDVSHEDPEVKFNWYVDGVEVHNAKTKPREEQYNSTYRVVSVLTVLHQDWLNGKEYKCKVSNKALPAPIEKTISKAKGQPREPQVYTLPPSREEMTKNQVSLTCLVKGFYPSDIAVEWESNGQPENNYKTTPPVLDSDGSFFLYSKLTVDKSRWQQGNVFSCSVMHEALHNHYTQKSLSLSPG
light: QIVLSQSPAILSTSPGEKVTMTCRASSSVSYMHWYQQKPGSSPKPWIYATSNLASGVPARFSGSRSGTSYSLTISRVEAEDAATYYCQQWSSNTLTFGGGTKLELKRTVAAPSVFIFPPSDEQLKSGTASVVCLLNNFYPREAKVQWKVDNALQSGNSQESVTEQDSKDSTYSLSSTLTLSKADYEKHKVYACEVTHQGLSSPVTKSFNRGECGGGGSGGGGSGGGGSGGGGSDIQMTQSPSSLSASVGDRVTITCKASQNIYIYLNWYQQKPGKAPKLLIYNTNNLQTGVPSRFSGSGSGTDFTLTISSLQPEDFATYYCLQHSSRRTFGGGTKVEIKGGGGSGGGGSGGGGSGGGGSQVQLVESGGGLVQPGGSLKLSCATSGFNFNDYFMNWVRQASGKGLEWVGQIRNKNYNYATYYTESLEGRVTISRDDSKNTAYLQMNSLKTEDTAVYYCTSYYYDGFADYFDYWGQGTTVTVSS
notes: Ly383 HC (IgG1 mutated Fc) + Ly383 LC-TM740 scFv VL-VH
Turning to B3, the binding result is listed as “binds”.

B4: Ly804 (bispecific antibody, human IgG1, kappa)
heavy: B3 heavy
light: QIVLSQSPAILSTSPGEKVTMTCRASSSVSYMHWYQQKPGSSPKPWIYATSNLASGVPARFSGSRSGTSYSLTISRVEAEDAATYYCQQWSSNTLTFGGGTKLELKRTVAAPSVFIFPPSDEQLKSGTASVVCLLNNFYPREAKVQWKVDNALQSGNSQESVTEQDSKDSTYSLSSTLTLSKADYEKHKVYACEVTHQGLSSPVTKSFNRGECGGGGSGGGGSGGGGSGGGGSEVQLVESGGGLVQPGGSLRLSCAASGFTFTNYGLHWVRQAPGKGLEWVSSISPSGGVTYYRDSVKGRFTISRDNSKNTLYLQMNSLRAEDTAVYYCAKPFLGWGGANWIAHWGQGTLVTVSSGGGGSGGGGSGGGGSGGGGSDIQMTQSPSSLSASVGDRVTITCLASEDISNDLAWYQQKPGKAPKLLIYFVDRLLDGVPSRFSGSGSGTDFTLTISSLQPEDFATYYCQQSYKYPPTFGQGTKLEIK
notes: Ly383 HC (IgG1 mutated Fc) + Ly383 LC-TM559 scFv VH-VL
With B4, the binding result is “binds”.

B5: Ly803 (bispecific antibody, human IgG1, kappa)
heavy: B3 heavy
light: QIVLSQSPAILSTSPGEKVTMTCRASSSVSYMHWYQQKPGSSPKPWIYATSNLASGVPARFSGSRSGTSYSLTISRVEAEDAATYYCQQWSSNTLTFGGGTKLELKRTVAAPSVFIFPPSDEQLKSGTASVVCLLNNFYPREAKVQWKVDNALQSGNSQESVTEQDSKDSTYSLSSTLTLSKADYEKHKVYACEVTHQGLSSPVTKSFNRGECGGGGSGGGGSGGGGSGGGGSDIQMTQSPSSLSASVGDRVTITCLASEDISNDLAWYQQKPGKAPKLLIYFVDRLLDGVPSRFSGSGSGTDFTLTISSLQPEDFATYYCQQSYKYPPTFGQGTKLEIKGGGGSGGGGSGGGGSGGGGSEVQLVESGGGLVQPGGSLRLSCAASGFTFTNYGLHWVRQAPGKGLEWVSSISPSGGVTYYRDSVKGRFTISRDNSKNTLYLQMNSLRAEDTAVYYCAKPFLGWGGANWIAHWGQGTLVTVSS
notes: Ly383 HC (IgG1 mutated Fc) + Ly383 LC-TM559 scFv VL-VH
For the molecule B5, the binding result is “binds”.

B6: Ly802 (bispecific antibody, human IgG1, kappa)
heavy: B3 heavy
light: QIVLSQSPAILSTSPGEKVTMTCRASSSVSYMHWYQQKPGSSPKPWIYATSNLASGVPARFSGSRSGTSYSLTISRVEAEDAATYYCQQWSSNTLTFGGGTKLELKRTVAAPSVFIFPPSDEQLKSGTASVVCLLNNFYPREAKVQWKVDNALQSGNSQESVTEQDSKDSTYSLSSTLTLSKADYEKHKVYACEVTHQGLSSPVTKSFNRGECGGGGSGGGGSGGGGSGGGGSQVQLVESGGGLVQPGGSLKLSCATSGFNFNDYFMNWVRQASGKGLEWVGQIRNKNYNYATYYTESLEGRVTISRDDSKNTAYLQMNSLKTEDTAVYYCTSYYYDGFADYFDYWGQGTTVTVSSGGGGSGGGGSGGGGSGGGGSDIQMTQSPSSLSASVGDRVTITCKASQNIYIYLNWYQQKPGKAPKLLIYNTNNLQTGVPSRFSGSGSGTDFTLTISSLQPEDFATYYCLQHSSRRTFGGGTKVEIK
notes: Ly383 HC (IgG1 mutated Fc) + Ly383 LC-TM740 scFv VH-VL
As for B6, the binding result was “binds”.

B7: Ly805 (bispecific antibody, human IgG1, kappa)
heavy: QVQLQQPGAELVKPGASVKLSCKASGYTFTSYWMHWVKQRPGQGLEWIGMIHPNSGGTNYNEKFKGKGTLTVDKSSSTAYMQLSSLTSDDSAVYYCVTSQATWFAYWGQGTLVTVSAASTKGPSVFPLAPSSKSTSGGTAALGCLVKDYFPEPVTVSWNSGALTSGVHTFPAVLQSSGLYSLSSVVTVPSSSLGTQTYICNVNHKPSNTKVDKKVEPKSCDKTHTCPPCPAPELLGPSVFLFPPKPKDTLMISRTPEVTCVVVDVSHEDPEVKFNWYVDGVEVHNAKTKPREEQYNSTYRVVSVLTVLHQDWLNGKEYKCKVSNKALPAPIEKTISKAKGQPREPQVYTLPPSREEMTKNQVSLTCLVKGFYPSDIAVEWESNGQPENNYKTTPPVLDSDGSFFLYSKLTVDKSRWQQGNVFSCSVMHEALHNHYTQKSLSLSPG
light: ENVLTQSPAIMSVSPGEKVTMTCRASSSVSSSYLHWYQQKSGASPKFWIYSTSNLASGVPARFSGSGSGTSYSLTISSVEAEDAATYYCQHYSGYPLTFGAGTKLELRRTVAAPSVFIFPPSDEQLKSGTASVVCLLNNFYPREAKVQWKVDNALQSGNSQESVTEQDSKDSTYSLSSTLTLSKADYEKHKVYACEVTHQGLSSPVTKSFNRGECGGGGSGGGGSGGGGSGGGGSDIQMTQSPSSLSASVGDRVTITCKASQNIYIYLNWYQQKPGKAPKLLIYNTNNLQTGVPSRFSGSGSGTDFTLTISSLQPEDFATYYCLQHSSRRTFGGGTKVEIKGGGGSGGGGSGGGGSGGGGSQVQLVESGGGLVQPGGSLKLSCATSGFNFNDYFMNWVRQASGKGLEWVGQIRNKNYNYATYYTESLEGRVTISRDDSKNTAYLQMNSLKTEDTAVYYCTSYYYDGFADYFDYWGQGTTVTVSS
notes: Ly387 HC (IgG1 mutated Fc) + Ly387 LC-TM740 scFv VL-VH
Take B7: the binding result is “binds”.

B8: Ly808 (bispecific antibody, human IgG1, kappa)
heavy: B7 heavy
light: ENVLTQSPAIMSVSPGEKVTMTCRASSSVSSSYLHWYQQKSGASPKFWIYSTSNLASGVPARFSGSGSGTSYSLTISSVEAEDAATYYCQHYSGYPLTFGAGTKLELRRTVAAPSVFIFPPSDEQLKSGTASVVCLLNNFYPREAKVQWKVDNALQSGNSQESVTEQDSKDSTYSLSSTLTLSKADYEKHKVYACEVTHQGLSSPVTKSFNRGECGGGGSGGGGSGGGGSGGGGSEVQLVESGGGLVQPGGSLRLSCAASGFTFTNYGLHWVRQAPGKGLEWVSSISPSGGVTYYRDSVKGRFTISRDNSKNTLYLQMNSLRAEDTAVYYCAKPFLGWGGANWIAHWGQGTLVTVSSGGGGSGGGGSGGGGSGGGGSDIQMTQSPSSLSASVGDRVTITCLASEDISNDLAWYQQKPGKAPKLLIYFVDRLLDGVPSRFSGSGSGTDFTLTISSLQPEDFATYYCQQSYKYPPTFGQGTKLEIK
notes: Ly387 HC (IgG1 mutated Fc) + Ly387 LC-TM559 scFv VH-VL
Consider B8, for which the binding result is listed as “binds”.

B9: Ly806 (bispecific antibody, human IgG1, kappa)
heavy: B7 heavy
light: ENVLTQSPAIMSVSPGEKVTMTCRASSSVSSSYLHWYQQKSGASPKFWIYSTSNLASGVPARFSGSGSGTSYSLTISSVEAEDAATYYCQHYSGYPLTFGAGTKLELRRTVAAPSVFIFPPSDEQLKSGTASVVCLLNNFYPREAKVQWKVDNALQSGNSQESVTEQDSKDSTYSLSSTLTLSKADYEKHKVYACEVTHQGLSSPVTKSFNRGECGGGGSGGGGSGGGGSGGGGSQVQLVESGGGLVQPGGSLKLSCATSGFNFNDYFMNWVRQASGKGLEWVGQIRNKNYNYATYYTESLEGRVTISRDDSKNTAYLQMNSLKTEDTAVYYCTSYYYDGFADYFDYWGQGTTVTVSSGGGGSGGGGSGGGGSGGGGSDIQMTQSPSSLSASVGDRVTITCKASQNIYIYLNWYQQKPGKAPKLLIYNTNNLQTGVPSRFSGSGSGTDFTLTISSLQPEDFATYYCLQHSSRRTFGGGTKVEIK
notes: Ly387 HC (IgG1 mutated Fc) + Ly387 LC-TM740 scFv VH-VL
On to B9, for which the binding result is given as “binds”.

B10: Ly807 (bispecific antibody, human IgG1, kappa)
heavy: B7 heavy
light: ENVLTQSPAIMSVSPGEKVTMTCRASSSVSSSYLHWYQQKSGASPKFWIYSTSNLASGVPARFSGSGSGTSYSLTISSVEAEDAATYYCQHYSGYPLTFGAGTKLELRRTVAAPSVFIFPPSDEQLKSGTASVVCLLNNFYPREAKVQWKVDNALQSGNSQESVTEQDSKDSTYSLSSTLTLSKADYEKHKVYACEVTHQGLSSPVTKSFNRGECGGGGSGGGGSGGGGSGGGGSDIQMTQSPSSLSASVGDRVTITCLASEDISNDLAWYQQKPGKAPKLLIYFVDRLLDGVPSRFSGSGSGTDFTLTISSLQPEDFATYYCQQSYKYPPTFGQGTKLEIKGGGGSGGGGSGGGGSGGGGSEVQLVESGGGLVQPGGSLRLSCAASGFTFTNYGLHWVRQAPGKGLEWVSSISPSGGVTYYRDSVKGRFTISRDNSKNTLYLQMNSLRAEDTAVYYCAKPFLGWGGANWIAHWGQGTLVTVSS
notes: Ly387 HC (IgG1 mutated Fc) + Ly387 LC-TM559 scFv VL-VH
Turning to B10, the binding result is recorded as “binds”.

B11: Ly472 (bispecific antibody, human IgG1, kappa)
heavy: QVQLKESGPGLVAPSQSLSITCTVSGFSLTDYGVRWIRQPPGKGLEWLGVIWGGGSTYYNSALKSRLSISKDNSKSQVFLKMNSLQTDDTAMYYCAKEKRRGYYYAMDYWGQGTSVTVSSASTKGPSVFPLAPSSKSTSGGTAALGCLVKDYFPEPVTVSWNSGALTSGVHTFPAVLQSSGLYSLSSVVTVPSSSLGTQTYICNVNHKPSNTKVDKKVEPKSCDKTHTCPPCPAPELLGPSVFLFPPKPKDTLMISRTPEVTCVVVDVSHEDPEVKFNWYVDGVEVHNAKTKPREEQYNSTYRVVSVLTVLHQDWLNGKEYKCKVSNKALPAPIEKTISKAKGQPREPQVYTLPPSREEMTKNQVSLTCLVKGFYPSDIAVEWESNGQPENNYKTTPPVLDSDGSFFLYSKLTVDKSRWQQGNVFSCSVMHEALHNHYTQKSLSLSPG
light: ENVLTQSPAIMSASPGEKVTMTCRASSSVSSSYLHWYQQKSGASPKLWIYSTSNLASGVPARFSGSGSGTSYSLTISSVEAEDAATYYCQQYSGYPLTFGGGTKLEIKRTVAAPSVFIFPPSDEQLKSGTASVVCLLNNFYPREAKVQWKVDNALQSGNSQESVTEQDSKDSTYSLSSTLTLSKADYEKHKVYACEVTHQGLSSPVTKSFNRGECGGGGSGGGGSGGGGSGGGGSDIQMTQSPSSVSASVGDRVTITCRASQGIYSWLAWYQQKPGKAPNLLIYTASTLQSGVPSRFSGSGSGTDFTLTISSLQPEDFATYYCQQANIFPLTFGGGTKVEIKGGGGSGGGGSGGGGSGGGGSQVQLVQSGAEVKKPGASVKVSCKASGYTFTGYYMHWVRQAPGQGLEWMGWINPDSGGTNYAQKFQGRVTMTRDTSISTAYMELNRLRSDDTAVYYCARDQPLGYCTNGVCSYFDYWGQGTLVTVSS
notes: Ly368 HC + Ly368 LC-Ly253 scFv VL-VH
For the molecule B11, the binding result is “binds”.

B12: Ly473 (bispecific antibody, human IgG1, kappa)
heavy: B11 heavy
light: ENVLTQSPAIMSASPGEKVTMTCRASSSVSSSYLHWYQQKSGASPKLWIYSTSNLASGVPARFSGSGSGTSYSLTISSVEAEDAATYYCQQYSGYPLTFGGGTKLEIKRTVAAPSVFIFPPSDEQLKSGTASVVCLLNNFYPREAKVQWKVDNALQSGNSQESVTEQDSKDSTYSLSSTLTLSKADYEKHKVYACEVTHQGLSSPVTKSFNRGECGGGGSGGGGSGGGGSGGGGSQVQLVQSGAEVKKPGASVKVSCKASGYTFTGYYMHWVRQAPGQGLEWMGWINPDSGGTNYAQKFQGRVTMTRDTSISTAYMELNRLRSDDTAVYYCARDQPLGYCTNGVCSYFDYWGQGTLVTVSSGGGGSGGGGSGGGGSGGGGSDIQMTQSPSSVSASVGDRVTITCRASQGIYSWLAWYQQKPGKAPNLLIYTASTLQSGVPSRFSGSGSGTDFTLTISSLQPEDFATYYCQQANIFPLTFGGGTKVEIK
notes: Ly368 HC + Ly368 LC-Ly253 scFv VH-VL
As to B12, the binding result is on record as “binds”.

(Values after patent publication US20220372155A1 (LYVGEN BIOPHARMA, published 2022).)
